Assay results: US20250154283A1 (published 2025)
Values belong to the binder of their own block, whether it stands above or below them.

Key:
[1] = biological target: T1, biotinylated human VWF cysteine knot (CK) domain construct (human, biotin on the in vitro biotinylation tag (residue not stated); one N-glycan); assay: SPR, scFv captured on anti-SV5, pH 7.4
T1 construct: Disulfide-linked homodimer; also called biotinylated human VWF CK domain; human VWF CK domain construct
T1 chain: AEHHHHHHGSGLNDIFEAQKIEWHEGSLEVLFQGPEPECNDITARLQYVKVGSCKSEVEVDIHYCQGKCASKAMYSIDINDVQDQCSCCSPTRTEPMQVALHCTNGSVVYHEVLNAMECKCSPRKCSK

[2] = biological target: T2, human plasma-derived VWF (human, UniProt P04275 764-2813); assay: solution-phase equilibrium binding, free antibody by ELISA; apparent Kd; pH 7.4; mean ± SD, n=2
T2 construct: multimeric; also called pd-VWF; Human VWF
Protocol: (§1) Following incubation for 30 min at room temperature to establish equilibrium, unbound antibody was quantified by ELISA using the immobilized human CK domain for capture and HRP-conjugated goat anti-human IgG Fc antibody for detection.
(§2) Following a single wash of the plate with 200 μL of wash buffer (TBS containing 0.05% (v/v) Tween-20 and 5 mM CaCl₂), the plate was blocked by incubation with 200 μL blocking buffer (TBS containing 5 mM CaCl₂ and 1% (w/w) BSA) for 1 hour at room temperature. […] Incubation lasted 3 min and was followed by 5-min incubation with 100 μL HRP-conjugated goat anti-human IgG Fc antibody for detection (1 mg/mL stock diluted 1:20,000 in blocking buffer). Before and after addition of a detection antibody, the plate was washed 5 times with 200 μL wash buffer. A chromogenic horseradish peroxidase (HRP) substrate (100 μL) was then added and following color development for 3 min, 100 μL ELISA stop solution were added to quench the reaction. Absorbance was measured at 450 nm with subtraction of the absorbance at 620 nm.
(§3) The standard curve prepared with free antibody was fitted to a Sigmoidal four-parameter logistic (4PL) model.

[3] = biological target: T3, His-StrepTagII-HRV3C-cyno VWF-CK-HA-tag (cynomolgus monkey); assay: as above
T3 construct: it begins with the VWF signal peptide, whose limits were marked only by underlining that is lost in the text, so it was not cut off; The CK domain forms disulfide-linked homodimers; also called recombinant cyno CK domain; Cyno CK
T3 chain: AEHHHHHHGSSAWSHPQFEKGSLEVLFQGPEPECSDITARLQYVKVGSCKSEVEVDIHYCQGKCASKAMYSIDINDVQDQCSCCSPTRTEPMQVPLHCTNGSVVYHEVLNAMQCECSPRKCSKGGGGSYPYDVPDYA
Protocol: as §1, §2, §3

[4] = biological target: T4, His-StrepTagII-HRV3C-human VWF-CK-HA-tag (human); assay: as above
T4 construct: it begins with the VWF signal peptide, whose limits were marked only by underlining that is lost in the text, so it was not cut off; The CK domain forms disulfide-linked homodimers (CK dimer); also called recombinant human CK domain; Human CK
T4 chain: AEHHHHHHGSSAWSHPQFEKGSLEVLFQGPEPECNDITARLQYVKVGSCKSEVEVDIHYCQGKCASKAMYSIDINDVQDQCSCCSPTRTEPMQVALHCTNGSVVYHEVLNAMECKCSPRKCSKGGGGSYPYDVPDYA
Protocol: as §1, §2, §3

[5] = biological target: T5, VWF in human plasma (human, UniProt P04275 764-2813); assay: collagen type III binding ELISA; human plasma (5 donors) 17 h 37 °C with 600 nM antibody; VWF bound to collagen relative to untreated plasma; ligand collagen type III
T5 construct: Endogenous VWF in donor plasma, not purified; multimeric; also called VWF in plasma; VWF in platelet rich plasma
Protocol: Following incubation, collagen binding was determined relative to untreated plasma.

[6] = biological target: T5, VWF in human plasma; assay: VWF:FVIIIB enzyme immunoassay; human plasma (5 donors) 17 h 37 °C with 600 nM antibody; FVIII bound to captured VWF relative to untreated plasma; ligand FVIII
[7] = biological target: T5, VWF in human plasma; assay: flow cytometry, FITC anti-VWF on platelets; human PRP (2 donors), 0.5 mg/ml ristocetin, 600 nM antibody; relative to the same plasma without antibody; receptor platelet gp1b
Protocol: PRP was prepared by centrifuging the blood at 250 g for 15 min. […] Sample analysis was performed on a flow cytometer. Using forward (FSC) and sideward (SSC) scatter pattern, a gate was placed on the platelets.

[8] = biological target: T5, VWF in human plasma; assay: VWF:FVIIIB enzyme immunoassay; human plasma (5 donors) 17 h 37 °C with 200 nM antibody; FVIII bound to captured VWF relative to untreated plasma; ligand FVIII
[9] = biological target: T4, His-StrepTagII-HRV3C-human VWF-CK-HA-tag; assay: solution-phase equilibrium binding, free antibody by ELISA; apparent Kd; pH 5.5; mean ± SD, n=2
Protocol: as §1, §2, §3

[10] = biological target: T6, His-StrepTagII-HRV3C-cyno VWF-CK-HA-tag (cynomolgus monkey); assay: solution-phase equilibrium binding, unbound antibody by ELISA
T6 construct: also called recombinant cyno CK domain; cyno CK
T6 chain: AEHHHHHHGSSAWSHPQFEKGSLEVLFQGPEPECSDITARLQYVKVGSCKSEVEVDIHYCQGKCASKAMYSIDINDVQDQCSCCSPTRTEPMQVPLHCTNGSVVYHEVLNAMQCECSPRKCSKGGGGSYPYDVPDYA

binding result [1]: binds
B1: 4761_Lib8_scFv (scFv, not shown: small tags and cut ends)
scFv: EVQLVESGGGLVQPGRSLRLSCAASGFTFSSDTMHWVRQAPGKGLEWVSAISSSGDHTDYADSVEGRFTISRDNAKNSLYLQMNSLRAEDTAVYYCAREGLRGYYFDYWGQGTLVTVSSSGGSTITSYNVYYTKLSSSGTDIQMTQSPSSLSASVGDRVTITCRASQGISGHLAWYQQKPGKAPKLLIYAASALQSGVPSRFSGSGSGTDFTLTISSLQPEDVATYYCQQSHSLPWTFGGGTKVEIK

binding result [1]: binds
B2: 5802_Lib4_scFv (scFv, not shown: small tags and cut ends)
scFv: QVQLQESGPGLVKPSQTLSLTCTVSGYSISSGDYHWSWIRQPPGKGLEWIGYINPSGSADYNPSLKSRVTMSVDTSKNQFSLKVNSVTAADTAVYYCARDGVAATYYYYYGMDVWGQGTTVTVSSSGGSTITSYNVYYTKLSSSGTEIVMTQSPATLSLSPGERATLSCRASHSIGSNLAWYQQKPGQAPRLLIYDATTRATGIPARFSGSGSGTDFTLTISSLEPEDFAVYYCQQAYSFPLTFGGGTKVEIK

binding result [1]: binds
B3: Lib1_P1_A6_scFv (scFv, not shown: small tags and cut ends)
scFv: QVQLVQSGAEVKKPGASVKVSCKVSGSTFSNYAIHWVRQAPGKGLEWMGGIVPLSGTAIYAQKFQGRVTMTEDTSTDTAYMELSSLKSEDTAVYYCARDQGESSGWYAIYYGMDVWGQGTTVTVSSSGGSTITSYNVYYTKLSSSGTDIQMTQSPSSVSASVGDRVTITCRASQGIGTWLAWYQQKPGKAPKLLIYGSSSRASGVPSRFSGSGSGTDFTLTISSLQPEDFANYYCQQSYGKPTFGGGTKVEIK

binding result [1]: binds
B4: 9312_Lib8_scFv (scFv, not shown: small tags and cut ends)
scFv: EVQLVESGGGLVQPGRSLRLSCAASGFSLSTYDMHWVRQAPGKGLEWVSAISSSGDTRDYADSVEGRFTISRDNAKNSLYLQMNSLRAEDTAVYYCARAFWGGDAFDIWGQGTMVTVSSSGGSTITSYNVYYTKLSSSGTDIQMTQSPSSLSASVGDRVTITCRASQTIGYWLAWYQQKPGKAPKLLIYGASTLEGGVPSRFSGSGSGTDFTLTISSLQPEDVATYYCQHSYSAPPTFGGGTKVEIK

Kd [2]: 5.3 nM
Kd [3]: 11 nM
Kd [4]: 4.3 nM
Collagen binding (% control) [5]: 108 % control
VWF:FVIII level (% of control) [6]: 85.8 % of control
Platelet binding (% control) [7]: 101 % control
VWF:FVIII level (% of control) [8]: 84.5 % of control
Kd [9]: 32.3 nM
B5: Lib1_P1_G3 OA (antibody, human IgG4 S228P, kappa, F234A L235A)
heavy: QVQLVQSGAEVKKPGASVKVSCKVSGYTSRQYIHWVRQAPGKGLEWMGWVTPIFGTTNYAQKFQGRVTMTEDTSTDTAYMELSSLKSEDTAVYYCAREWTGTTAFDIWGQGTLVTVSSASTKGPSVFPLAPCSRSTSESTAALGCLVKDYFPEPVTVSWNSGALTSGVHTFPAVLQSSGLYSLSSVVTVPSSSLGTKTYTCNVDHKPSNTKVDKRVESKYGPPCPPCPAPEAAGGPSVFLFPPKPKDTLMISRTPEVTCVVVDVSQEDPEVQFNWYVDGVEVHNAKTKPREEQFNSTYRVVSVLTVLHQDWLNGKEYKCKVSNKGLPSSIEKTISKAKGQPREPQVYTLPPSQEEMTKNQVSLSCAVKGFYPSDIAVEWESNGQPENNYKTTPPVLDSDGSFFLVSRLTVDKSRWQEGNVFSCSVMHEALHNHYTQKSLSLSLG
chain: ESKYGPPCPPCPAPEAAGGPSVFLFPPKPKDTLMISRTPEVTCVVVDVSQEDPEVQFNWYVDGVEVHNAKTKPREEQFNSTYRVVSVLTVLHQDWLNGKEYKCKVSNKGLPSSIEKTISKAKGQPREPQVYTLPPSQEEMTKNQVSLWCLVKGFYPSDIAVEWESNGQPENNYKTTPPVLDSDGSFFLYSRLTVDKSRWQEGNVFSCSVMHEALHNHYTQKSLSLSLG
light: DIQMTQSPSSVSASVGDRVTITCRASQDIGHYLAWYQQKPGKAPKLLIYAASNRASGVPSRFSGSGSGTDFTLTISSLQPEDFANYYCQQGYSAPYGFGGGTKVEIKRTVAAPSVFIFPPSDEQLKSGTASVVCLLNNFYPREAKVQWKVDNALQSGNSQESVTEQDSKDSTYSLSSTLTLSKADYEKHKVYACEVTHQGLSSPVTKSFNRGEC

fold change in Kd, cyno CK against human CK [10]: < 2 fold
B6: 399_Lib1 OA (antibody, human IgG4 S228P, kappa, F234A L235A)
heavy: QVQLVQSGAEVKKPGASVKVSCKVSGITFTSDYIHWVRQAPGKGLEWMGGMNPYSNKAIYAQKFQGRVTMTEDTSTDTAYMELSSLKSEDTAVYYCATGGLRIAARTSYFDYWGQGTLVTVSSASTKGPSVFPLAPCSRSTSESTAALGCLVKDYFPEPVTVSWNSGALTSGVHTFPAVLQSSGLYSLSSVVTVPSSSLGTKTYTCNVDHKPSNTKVDKRVESKYGPPCPPCPAPEAAGGPSVFLFPPKPKDTLMISRTPEVTCVVVDVSQEDPEVQFNWYVDGVEVHNAKTKPREEQFNSTYRVVSVLTVLHQDWLNGKEYKCKVSNKGLPSSIEKTISKAKGQPREPQVYTLPPSQEEMTKNQVSLSCAVKGFYPSDIAVEWESNGQPENNYKTTPPVLDSDGSFFLVSRLTVDKSRWQEGNVFSCSVMHEALHNHYTQKSLSLSLG
chain: ESKYGPPCPPCPAPEAAGGPSVFLFPPKPKDTLMISRTPEVTCVVVDVSQEDPEVQFNWYVDGVEVHNAKTKPREEQFNSTYRVVSVLTVLHQDWLNGKEYKCKVSNKGLPSSIEKTISKAKGQPREPQVYTLPPSQEEMTKNQVSLWCLVKGFYPSDIAVEWESNGQPENNYKTTPPVLDSDGSFFLYSRLTVDKSRWQEGNVFSCSVMHEALHNHYTQKSLSLSLG
light: DIQMTQSPSSVSASVGDRVTITCRASMDIAGSLAWYQQKPGKAPKLLIYDTSFRATGVPSRFSGSGSGTDFTLTISSLQPEDFANYYCQQYDNPPRLTFGGGTKVEIKRTVAAPSVFIFPPSDEQLKSGTASVVCLLNNFYPREAKVQWKVDNALQSGNSQESVTEQDSKDSTYSLSSTLTLSKADYEKHKVYACEVTHQGLSSPVTKSFNRGEC
notes: monovalent one-arm human IgG4

Kd [3]: 16.8 nM
Kd [4]: 13 nM
B7: 399_Lib1 OA (antibody, human IgG4 S228P, kappa, F234A L235A)
heavy: QVQLVQSGAEVKKPGASVKVSCKVSGITFTSDYIHWVRQAPGKGLEWMGGMNPYSNKAIYAQKFQGRVTMTEDTSTDTAYMELSSLKSEDTAVYYCATGGLRIAARTSYFDYWGQGTLVTVSSASTKGPSVFPLAPCSRSTSESTAALGCLVKDYFPEPVTVSWNSGALTSGVHTFPAVLQSSGLYSLSSVVTVPSSSLGTKTYTCNVDHKPSNTKVDKRVESKYGPPCPPCPAPEAAGGPSVFLFPPKPKDTLMISRTPEVTCVVVDVSQEDPEVQFNWYVDGVEVHNAKTKPREEQFNSTYRVVSVLTVLHQDWLNGKEYKCKVSNKGLPSSIEKTISKAKGQPREPQVYTLPPSQEEMTKNQVSLSCAVKGFYPSDIAVEWESNGQPENNYKTTPPVLDSDGSFFLVSRLTVDKSRWQEGNVFSCSVMHEALHNHYTQKSLSLSLG
chain: ESKYGPPCPPCPAPEAAGGPSVFLFPPKPKDTLMISRTPEVTCVVVDVSQEDPEVQFNWYVDGVEVHNAKTKPREEQFNSTYRVVSVLTVLHQDWLNGKEYKCKVSNKGLPSSIEKTISKAKGQPREPQVYTLPPSQEEMTKNQVSLWCLVKGFYPSDIAVEWESNGQPENNYKTTPPVLDSDGSFFLYSRLTVDKSRWQEGNVFSCSVMHEALHNHYTQKSLSLSLG
light: DIQMTQSPSSVSASVGDRVTITCRASMDIAGSLAWYQQKPGKAPKLLIYDTSFRATGVPSRFSGSGSGTDFTLTISSLQPEDFANYYCQQYDNPPRLTFGGGTKVEIKRTVAAPSVFIFPPSDEQLKSGTASVVCLLNNFYPREAKVQWKVDNALQSGNSQESVTEQDSKDSTYSLSSTLTLSKADYEKHKVYACEVTHQGLSSPVTKSFNRGEC

binding result [1]: binds
B8: Lib4_P2_D1_scFv (scFv, not shown: small tags and cut ends)
scFv: QVQLVQSGAEVKKPGASVKVSCKVSGDTLSNYAIHWVRQAPGKGLEWMGGINPNAGTTIYAQKFQGRVTMTEDTSTDTAYMELSSLKSEDTAVYYCARDSSSWCPVGYYYYYMDVWGKGTTVTVSSSGGSTITSYNVYYTKLSSSGTDIQMTQSPSSVSASVGDRVTITCRASQSIGDFLAWYQQKPGKAPKLLIYDASHLQTGVPSRFSGSGSGTDFTLTISSLQPEDFANYYCQQTSTIPPTFGGGTKVEIK

binding result [1]: binds
B9: Lib1_P1_A5_scFv (scFv, not shown: small tags and cut ends)
scFv: QVQLVQSGAEVKKPGASVKVSCKVSGDTLSNYAIHWVRQAPGKGLEWMGGINPNAGTTIYAQKFQGRVTMTEDTSTDTAYMELSSLKSEDTAVYYCARDSSSWCPVGYYYYYMDVWGKGTTVTVSSSGGSTITSYNVYYTKLSSSGTDIQMTQSPSSVSASVGDRVTITCRASQSIGDFLAWYQQKPGKAPKLLIYDASHLQTGVPSRFSGSGSGTDFTLTISSLQPEDFANYYCQQTSTIPPTFGGGTKVEIK
